# According to patent US20230250134A1 (University of Washington, published 2023):
# B1: LCB6-2 (designed binder)
# chain: DREQRLVRFLVRLASKFNLSMEQILILFDVLEELLERGVSEEEIRKILEEVAKEL
# B2: LCB6-1 (designed binder)
# chain: DREQRLVRFLVRLASKFNLSPEQILQLFEVLEELLERGVSEEEIRKQLEEVAKELG
# B3: LCB1-12GS-LCB1 (designed binder)
# chain: DKEWILQKIYEIMRLLDELGHAEASMRVSDLIYEFMKKGDERLLEEAERLLEEVERGGSGGSGSGGSGDKEWILQKIYEIMRLLDELGHAEASMRVSDLIYEFMKKGDERLLEEAERLLEEVER
# B4: LCB1-6GS-LCB1 (designed binder)
# chain: DKEWILQKIYEIMRLLDELGHAEASMRVSDLIYEFMKKGDERLLEEAERLLEEVERGGSGGSDKEWILQKIYEIMRLLDELGHAEASMRVSDLIYEFMKKGDERLLEEAERLLEEVER
# B5: LCB1-3 (designed binder)
# chain: DKEWILQKIYEIMRLLDELGHAEASMRVSDLIYEFMKQGDERLLEEAERLLEEVER
# B6: LCB3_v1.2-GS-LCB1_v1.1 (3GS1) (designed binder)
# chain: NDDELHMQMTDLVYEALHFAKDEEIQKHVFQLFEKATKAYKNKDRQKLEKVVEELKELLERLLSGGGGSGGGGSGGGGSGGGGSGGGGSGGGGSGGGGSGGGGSGGGGSGGGGSGGGGSGGGGSGGGGSGGGGSGGGGSDKENILQKIYEIMKTLDQLGHAEASMQVSDLIYEFMKQGDERLLEEAERLLEEVER
# B7: LCB3_v1.2-PRO-LCB1_v1.1 (3PRO1) (designed binder)
# chain: NDDELHMQMTDLVYEALHFAKDEEIQKHVFQLFEKATKAYKNKDRQKLEKVVEELKELLERLLSAGSGGSGGSGGSPVPSTPPTPSPSTPPTPSPSPVPSTPPTPSPSTPPTPSPSPVPSTPPTPSPSTPPTPSPSASGDKENILQKIYEIMKTLDQLGHAEASMQVSDLIYEFMKQGDERLLEEAERLLEEVER
# B8: LCB3_v1.2-10GS-LCB1_v1.1 (LCB3-GS10-LCB1) (designed binder)
# chain: NDDELHMQMTDLVYEALHFAKDEEIQKHVFQLFEKATKAYKNKDRQKLEKVVEELKELLERLLSGGSGGSGGSGDKENILQKIYEIMKTLDQLGHAEASMQVSDLIYEFMKQGDERLLEEAERLLEEVER
# B9: LCB1_v1.1-PRO-LCB3_v1.2 (1PRO3) (designed binder)
# chain: DKENILQKIYEIMKTLDQLGHAEASMQVSDLIYEFMKQGDERLLEEAERLLEEVERAGSGGSGGSGGSPVPSTPPTPSPSTPPTPSPSPVPSTPPTPSPSTPPTPSPSPVPSTPPTPSPSTPPTPSPSASGNDDELHMQMTDLVYEALHFAKDEEIQKHVFQLFEKATKAYKNKDRQKLEKVVEELKELLERLLS
# Molecular target: SARS-COV-2 spike protein on authentic virus, strain 2019 n-COV/USA_WA1/2020 (SARS-CoV-2, UniProt P0DTC2 14-1273)
# Test: cell-based or functional assay
row,Binder,SARS-CoV-2 Neutralization IC50 [nM]
1,B1,0.01
2,B2,0.01
3,B3,0.01
4,B4,0.01
5,B5,0.01

# Molecular target: SARS-COV-2 Spike glycoprotein (SARS-CoV-2, UniProt P0DTC2 14-1208)
# Test: estimated Kd for Spike (avidity), Table 10
row,Binder,Kd [nM]
1,B1,0.1
2,B6,0.1
3,B7,0.1
4,B2,0.1
5,B8,0.1
6,B9,0.1
7,B5,0.1

# Molecular target: T1, SARS-COV-2 Spike glycoprotein receptor binding domain (RBD) (SARS-CoV-2, UniProt P0DTC2 319-541)
# Test: not given
row,Binder,Kd [nM]
1,B6,0.2
2,B7,0.2
3,B8,0.2
4,B9,0.2

# Molecular target: T1, SARS-COV-2 Spike glycoprotein receptor …
# Test: estimated Kd for RBD, Table 10
row,Binder,Kd [nM]
1,B1,0.2
2,B2,0.2
3,B3,0.2
4,B4,0.2
5,B5,0.2
